US20210163594A1 (INVENRA, published 2021)

T1: CD3
T1 chain: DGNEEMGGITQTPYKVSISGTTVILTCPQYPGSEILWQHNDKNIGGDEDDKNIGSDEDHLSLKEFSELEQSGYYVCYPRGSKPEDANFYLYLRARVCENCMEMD

B1: BC1 (bispecific antibody)
chain 1: not shown
chain 2: EVQLVESGGGLVQPGGSLRLSCAASGFTFSDYDIHWVRQAPGKGLEWVGDITPYDGTTNYADSVKGRFTISADTSKNTAYLQMNSLRAEDTAVYYCARLVGEIATGFDYWGQGTLVTVSSASPREPQVYTDPPSRDELTKNQVSLTCLVKGFYPSDIAVEWESNGQPENNYKTTPPVLDSDGSFFLYSKLTVDKSRWQQGNVFSCSVMHEALHNHYTQKSLSLSGEC
chain 3: not shown
chain 4: QVQLVESGGGVVQPGRSLRLDCKASGITFSNSGMHWVRQAPGKGLEWVAVIWYDGSKRYYADSVKGRFTISRDNSKNTLFLQMNSLRAEDTAVYYCATNDDYWGQGTLVTVSSASTKGPSVFPLAPSSKSTSGGTAALGCLVKDYFPEPVTVSWNSGALTSGVHTFPAVLQSSGLYSLSSVVTVPSSSLGTQTYICNVNHKPSNTKVDKKVEPPKSC
notes: also called bivalent bispecific B-Body BC1; bivalent 1×1 construct BC1
B2: non-mutagenized SP34-89 monovalent B-Body (bispecific antibody, V domains shown)
VH: EVQLVESGGGLVQPGGSLRLSCAASGFTFNTYAMNWVRQAPGKGLEWVARIRSKYNNYATYYADSVKGRFSISRDDSKNTAYLQMNSLRAEDTAVYYCVRHGNFGNSYVSWFAYWGQGTLVTV
VL: QAVVTQEPSLTVSPGGTVTLTCRSSTGAVTTSNYANWVQQKPGQAPRGLIGGTNKRAPWTPARFSGSLLGGKAALTITGAQAEDEADYYCALWYSNLWVFGGGTKLTVL
notes: VL and VH were cloned into one arm of a 1×1 BC1 B-Body; Constant parts as in the BC1 scaffold; also called SP34-89 VL-WT/SP34-89 VH-WT

Tests used:
CTLA4 = CTLA4 (UniProt P16410 36-161, limits assumed); experiment: BLI (Octet), antigen immobilized, B-Body as analyte
Chain of CTLA4 (P16410 36-161 limits assumed): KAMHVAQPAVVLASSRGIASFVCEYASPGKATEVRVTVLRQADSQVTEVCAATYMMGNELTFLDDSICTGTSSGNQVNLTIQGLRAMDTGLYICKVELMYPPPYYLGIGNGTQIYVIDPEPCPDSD
From the text: In each instance, the antigen is immobilized and the B-Body is the analyte.

CD3 = target: T1, CD3; experiment: BLI (Octet), two-fold serial dilution (200-12.5 nM) of the monovalent B-Body

Row | Binder | binding result (CTLA4) | Kd (CD3) [nM] | koff (CD3) [s⁻¹] | kon (CD3) [M⁻¹ s⁻¹]
1 | B1 | no binding | – | – | –
2 | B2 | – | 23 | 0.0071 | 300000
